The source of these data is patent publication US20110064733A1 (published 2011).

The target of experiment [1] is T1, Muc1 mucin bearing the CA6 sialoglycotope (DS6 antigen), as expressed by CA6-positive human tumour cell lines (human, UniProt P15941 24-1255, sialylated O-linked carbohydrate carrying the CA6 glycotope; sites not stated). The experiment in a line: cell-based or functional assay.
Experiment [2] has as its target T1, Muc1 mucin bearing the CA6 …. Briefly: flow cytometry on HeLa cells (FIG. 28), apparent Kd, probably pM.
Experiment [3] has the same target. The experiment in a line: flow cytometry competition; competitor 2 nM biotin-muDS6, streptavidin-DTAF; called IC50 in the legend of FIG. 19. As to the method:
In the first set of experiments direct binding to a CA6-expressing cell line, KB, was measured.

B1: murine anti-CA6 monoclonal antibody DS6 (antibody, mouse IgG1, V domains shown)
VH: QAYLQQSGAELVRSGASVKMSCKASGYTFTSYNMHWVKQTPGQGLEWIGYIYPGNGATNYNQKFKGKATLTADPSSSTAYMQISSLTSEDSAVYFCARGDSVPFAYWGQGTLVTVSA
VL: QIVLTQSPAIMSASPGEKVTITCSAHSSVSFMHWFQQKPGTSPKLWIYSTSSLASGVPARFGGSGSGTSYSLTISRMEAEDAATYYCQQRSSFPLTFGAGTKLELKR
notes: Whole murine monoclonal antibody from the hybridoma (ATCC PTA-4449); They were cloned with murine IgG1 and kappa primers; also called muDS6; the DS6 antibody
As for B1, the “indirect cell viability assay on Caov-3 cells with anti-mouse IgG (H+L) DM1 conjugate, IC50” value in experiment [1] stood at 425000 nM. Besides, the Kd in experiment [2] stood at 620000 nM. In addition, in experiment [3], the EC50 – broadly, the concentration giving half of the maximal effect – worked out at 1.9 nM.

B2: chimeric DS6 antibody (antibody, V domains shown)
VH: QAYLQQSGAELVRSGASVKMSCKASGYTFTSYNMHWVKQTPGQGLEWIGYIYPGNGATNYNQKFKGKATLTADPSSSTAYMQISSLTSEDSAVYFCARGDSVPFAYWGQGTLVTVSA
VL: QIVLTQSPAIMSASPGEKVTITCSAHSSVSFMHWFQQKPGTSPKLWIYSTSSLASGVPARFGGSGSGTSYSLTISRMEAEDAATYYCQQRSSFPLTFGAGTKLELKR
notes: Expressed in CHO cells; also called chDS6
Molecule B2 displayed a concentration for a half-maximal effect (EC50) in experiment [3] of 1.7 nM.

B3: humanized DS6 antibody version 1.01 (antibody, V domains shown)
VH: QAQLVQSGAEVVKPGASVKMSCKASGYTFTSYNMHWVKQTPGQGLEWIGYIYPGNGATNYNQKFQGKATLTADTSSSTAYMQISSLTSEDSAVYFCARGDSVPFAYWGQGTLVTVSA
VL: EIVLTQSPATMSASPGERVTITCSAHSSVSFMHWFQQKPGTSPKLWIYSTSSLASGVPARFGGSGSGTSYSLTISSMEAEDAATYYCQQRSSFPLTFGAGTKLELKR
notes: also called huDS6v1.01; huDS6 v1.01
As to B3, the EC50 in experiment [3] was 3 nM. This EC50 lies about 1.8-fold higher than the previous one.

B4: humanized DS6 antibody version 1.21 (antibody, V domains shown)
VH: QAQLVQSGAEVVKPGASVKMSCKASGYTFTSYNMHWVKQTPGQGLEWIGYIYPGNGATNYNQKFQGKATLTADPSSSTAYMQISSLTSEDSAVYFCARGDSVPFAYWGQGTLVTVSA
VL: EIVLTQSPATMSASPGERVTITCSAHSSVSFMHWFQQKPGTSPKLWIYSTSSLASGVPARFGGSGSGTSYSLTISSMEAEDAATYYCQQRSSFPLTFGAGTKLELKR
notes: also called huDS6v1.21; huDS6 v1.21
The molecule B4 had an EC50 in experiment [3] of 1.9 nM.
